Laboratory results as given in patent publication US20190248900A1 (Y BIOLOGICS, published 2019).

Key:
[1] = target: T1, M1; experiment: scFv-phage ELISA
T1 construct: also called PD1 mutant M1

[2] = target: T2, M1-2; experiment: scFv-phage ELISA
T2 construct: also called PD1 mutant M1-2

[3] = target: T3, M8; experiment: scFv-phage ELISA
T3 construct: also called PD1 mutant M8

[4] = target: T4, M5-1; experiment: scFv-phage ELISA
T4 construct: also called PD1 mutant M5-1

[5] = target: T5, M14; experiment: scFv-phage ELISA
T5 construct: also called PD1 mutant M14

[6] = target: T6, M2-1; experiment: scFv-phage ELISA
T6 construct: also called PD1 mutant M2-1

[7] = target: T7, M5; experiment: scFv-phage ELISA
T7 construct: also called PD1 mutant M5

[8] = target: T8, M11; experiment: scFv-phage ELISA
T8 construct: also called PD1 mutant M11

[9] = target: T9, M7-2; experiment: scFv-phage ELISA
T9 construct: also called PD1 mutant M7-2

[10] = target: T10, M3; experiment: scFv-phage ELISA
T10 construct: also called PD1 mutant M3

[11] = target: T11, M7-1; experiment: scFv-phage ELISA
T11 construct: also called PD1 mutant M7-1

[12] = target: T12, antigen PD1 (coated, construct not stated) (UniProt Q15116 25-170, limits assumed); experiment: scFv-phage ELISA
T12 construct: also called PD1 antigen; PDCD1

[13] = target: T13, M2; experiment: scFv-phage ELISA
T13 construct: also called PD1 mutant M2

[14] = target: T14, M5-2; experiment: scFv-phage ELISA
T14 construct: also called PD1 mutant M5-2

[15] = target: T15, M2-2; experiment: scFv-phage ELISA
T15 construct: also called PD1 mutant M2-2

[16] = target: T16, M10; experiment: scFv-phage ELISA
T16 construct: also called PD1 mutant M10

[17] = target: T17, M6; experiment: scFv-phage ELISA
T17 construct: also called PD1 mutant M6

[18] = target: T18, ITGA6-Fc; experiment: scFv-phage ELISA
T18 construct: Fc fusion
T18 sequence (P23229 whole entry, species assumed, looked up): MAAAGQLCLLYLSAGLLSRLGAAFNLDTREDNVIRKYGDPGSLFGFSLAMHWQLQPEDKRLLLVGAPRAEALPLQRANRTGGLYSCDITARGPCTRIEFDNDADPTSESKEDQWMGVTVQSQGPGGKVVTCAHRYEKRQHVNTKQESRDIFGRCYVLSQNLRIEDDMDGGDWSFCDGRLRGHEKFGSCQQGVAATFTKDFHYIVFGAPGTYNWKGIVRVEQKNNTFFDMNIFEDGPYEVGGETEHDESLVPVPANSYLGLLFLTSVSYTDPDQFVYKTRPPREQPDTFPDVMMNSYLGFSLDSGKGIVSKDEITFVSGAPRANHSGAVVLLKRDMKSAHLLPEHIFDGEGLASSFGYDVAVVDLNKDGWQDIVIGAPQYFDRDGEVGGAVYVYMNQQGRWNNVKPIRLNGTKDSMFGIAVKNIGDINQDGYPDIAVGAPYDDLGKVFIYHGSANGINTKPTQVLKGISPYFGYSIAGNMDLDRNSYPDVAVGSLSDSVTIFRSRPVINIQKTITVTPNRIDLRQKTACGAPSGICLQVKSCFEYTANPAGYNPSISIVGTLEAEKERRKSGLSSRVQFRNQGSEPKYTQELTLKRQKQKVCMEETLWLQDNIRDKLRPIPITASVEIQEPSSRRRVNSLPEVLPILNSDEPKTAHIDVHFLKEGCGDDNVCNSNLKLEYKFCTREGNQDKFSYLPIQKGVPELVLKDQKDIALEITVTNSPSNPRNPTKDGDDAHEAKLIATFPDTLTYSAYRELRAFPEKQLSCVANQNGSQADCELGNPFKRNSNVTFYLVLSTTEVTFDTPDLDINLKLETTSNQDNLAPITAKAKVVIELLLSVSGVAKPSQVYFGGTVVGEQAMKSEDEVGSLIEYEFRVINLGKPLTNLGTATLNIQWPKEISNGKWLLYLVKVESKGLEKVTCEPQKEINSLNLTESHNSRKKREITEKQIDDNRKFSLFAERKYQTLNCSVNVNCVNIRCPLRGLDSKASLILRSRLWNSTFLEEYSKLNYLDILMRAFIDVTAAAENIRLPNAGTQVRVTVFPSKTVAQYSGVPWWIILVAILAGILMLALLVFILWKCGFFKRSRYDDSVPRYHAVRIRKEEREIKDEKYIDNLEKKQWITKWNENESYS

[19] = target: T19, M1-1; experiment: scFv-phage ELISA
T19 construct: also called PD1 mutant M1-1

[20] = target: T20, M13; experiment: scFv-phage ELISA
T20 construct: also called PD1 mutant M13

[21] = target: T21, M9; experiment: scFv-phage ELISA
T21 construct: also called PD1 mutant M9

[22] = target: T22, M12; experiment: scFv-phage ELISA
T22 construct: also called PD1 mutant M12

[23] = target: T23, M4; experiment: scFv-phage ELISA
T23 construct: also called PD1 mutant M4

[24] = target: T24, M7; experiment: scFv-phage ELISA
T24 construct: also called PD1 mutant M7

[25] = target: T25, human PD-1 (NM_005018.2) over-expressed on cells (human, UniProt Q15116 25-288); experiment: flow cytometry on cells over-expressing human PD-1, Geometric Mean
T25 construct: whole, on cells; also called human PD-1 over-expressed on the cell surface; Jurkat cell line highly expressing human PD-1
Procedure: 0.5 to 1×10⁶ cells per sample were each prepared from the transformation cell pools highly expressing human PD-1, and antibodies were serially diluted at a constant dilution rate and reacted with the prepared cells at 4° C. for 20 minutes. Then, the cells were washed three times with PBS (#LB001-02, Welgene) containing 2% fetal bovine serum and reacted at 4° C. for 20 minutes with an anti-human IgG antibody (#FI-3000, Vectorlabs) conjugated with a FITC (fluorescein isothiocyanate) fluorescent substance. Then, the cells were subjected to the same washing process as above and then suspended in 0.5 ml of PBS containing 2% FBS (#26140-079, Thermo Fisher) with an FACSCanto II flow cytometer (BD Biosciences, USA) as a flow cytometer.

T12 sequence (Q15116 25-170 limits assumed): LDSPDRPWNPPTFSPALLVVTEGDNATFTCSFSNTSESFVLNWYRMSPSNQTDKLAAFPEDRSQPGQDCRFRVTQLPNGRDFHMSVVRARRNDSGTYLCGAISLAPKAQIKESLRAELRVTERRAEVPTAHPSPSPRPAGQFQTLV
T25 sequence (Q15116 25-288): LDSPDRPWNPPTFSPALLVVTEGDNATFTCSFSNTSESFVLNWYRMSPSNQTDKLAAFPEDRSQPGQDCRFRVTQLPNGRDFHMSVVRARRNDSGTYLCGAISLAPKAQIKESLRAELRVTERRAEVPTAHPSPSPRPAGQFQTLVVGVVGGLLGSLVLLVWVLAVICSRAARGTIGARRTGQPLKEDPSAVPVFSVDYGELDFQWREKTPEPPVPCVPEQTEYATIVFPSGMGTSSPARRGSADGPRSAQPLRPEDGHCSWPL

B1: PD1-45D6 (antibody, V domains shown)
VH: QVQLVESGGGVVQPGRSLRLSCAASGFTFSSYAMHWVRQVPGKGLEWVAVISYDGNDKYYADSVKGRFTISRDNSKNTLYLQMNSLRAEDTAVYYCVPTTFEYWGQGSQVTVSS
VL: DIVMTQTPLSLPVTPGEAASISCRSSQSLLDSDDGKTYLDWYLQKPGQSPQLLIYTLSYRASGVPDRFSGSGSGTEFNLRISRVEAEDVGIYYCMQRVEFPFTFGQGTKLDIK
notes: scFv-phage in the screening ELISA; whole IgG in the other assays
With B1 the OD490 [1] was 4, the OD490 [2] was 3.9 and the OD490 [3] was 3.8. For the same binder, the OD490 [4] was 3.8, the OD490 [5] was 3.9 and the OD490 [6] was 3.9. It also gave an OD490 [7] of 3.6, an OD490 [8] of 0.7 and an OD490 [9] of 4. For the same binder, the OD490 [10] was 3.8, the OD490 [11] was 1.3 and the OD490 [12] was 3.8. For the same binder, the OD490 [13] was 0.4, the OD490 [14] was 3.9 and the OD490 [15] was 3.8. The OD490 [16] was 3.9, the OD490 [17] was 3.9 and the OD490 [18] was 0.5. For the same binder, the OD490 [19] was 3.8, the OD490 [20] was 4 and the OD490 [21] was 3.8. For the same binder, the OD490 [22] was 3.9, the OD490 [23] was 3.9 and the OD490 [24] was 0.5. For the same binder, the EC50 [25] was 4.84 nM.

B2: PD1-52E8 (antibody, V domains shown)
VH: QVQLVQSGGNLVQPGRSLRLSCAASGFTFDDYAMHWVRQAPGKGLEWVSGISWNSGTPGYADSVQGRFTISRDNAKNSLYLQMNSLRAEDTAVYYCARGHNYLDSSYYDYWGQGTLVTVSS
VL: SYELTQPLSLSVAPGQTARITCSGDALSKEYSYWYQQKPGQAPVLVMYKDSERPSGIPERFSGSSSGTTVTLTISGVQAEDEADYYCQSVDSSDTSVVFGGGTKLTVL
notes: as for B1
In the case of B2, the OD490 [1] is reported as 1.4, the OD490 [2] is reported as 3.6 and the OD490 [3] is reported as 0.6. The OD490 [4] was 0.3, the OD490 [5] was 2.6 and the OD490 [6] was 2.9. For the same binder, the OD490 [7] was 0.5, the OD490 [8] was 0.2 and the OD490 [9] was 3.9. The OD490 [10] was 1.5, the OD490 [11] was 1.1 and the OD490 [12] was 0.4. It also gave an OD490 [13] of 0.2, an OD490 [14] of 3.5 and an OD490 [15] of 3.4. The OD490 [16] was 1, the OD490 [17] was 3.4 and the OD490 [18] was 0.1. The OD490 [19] was 1.5, the OD490 [20] was 3.9 and the OD490 [21] was 2.4. The OD490 [22] was 3.2, the OD490 [23] was 3.7 and the OD490 [24] was 1.

B3: PD1-41C9 (antibody, V domains shown)
VH: QMQLVESGGGVVQPGRSLRLSCAASGFTFSSYAMHWVRQAPGKGLEWVAVISYDGSNKYYADSVKGRFTISRDNSKNTLYLQMNRLRSEDTAVYYCTTTTFDSWGQGTLITVSS
VL: DIVMTQTPLSLPVTPGEAASISCRSSQSLLDSEDGNTYLDWYLQKPGQSPQLLIYTLSHRASGVPDRFSGSGSGTDFTLKISRVAAEDVGLYYCLQRMGFPYTFGQGTKLDIK
notes: as for B1
B3 gave an OD490 [1] of 3.2, an OD490 [2] of 3.2 and an OD490 [3] of 2.5. For the same binder, the OD490 [4] was 2.8, the OD490 [5] was 3.5 and the OD490 [6] was 3.4. It also gave an OD490 [7] of 2.3, an OD490 [8] of 0.9 and an OD490 [9] of 3. For the same binder, the OD490 [10] was 2.3, the OD490 [11] was 1.2 and the OD490 [12] was 3.2. For the same binder, the OD490 [13] was 0.8, the OD490 [14] was 3.6 and the OD490 [15] was 3.2. The OD490 [16] was 3.4, the OD490 [17] was 3.6 and the OD490 [18] was 0.5. It also gave an OD490 [19] of 3.1, an OD490 [20] of 3.6 and an OD490 [21] of 3.3. For the same binder, the OD490 [22] was 3.1, the OD490 [23] was 3.2 and the OD490 [24] was 0.8. It also gave an EC50 [25] of 5.89 nM.

B4: PD1-49A2 (antibody, V domains shown)
VH: QVQLVESGGGVVQPGRSLRLSCAASGFTFSSYAMHWVRQAPGKGLEWVAVISYDGSNKYYADSVKGRFTISRDNPKNTLYLQMNSLRAEDTAVYYCTTTTFDSWGRGTLVTVSS
VL: DIVMTQSPLSLPVTPGEPASISCRSSQSLFDSDDGNTYLDWYLQKPGQSPQLLIYTLSHRASGVPDRFSGSGSGTDFTLKISRVEAEDVGIYYCLQRMGFPYTFGQGTKVEIK
notes: scFv-phage in the screening ELISA; whole IgG in the other assays; also called Parent 49A2
B4 showed an OD490 [1] of 3, an OD490 [2] of 3.8 and an OD490 [3] of 3. It also gave an OD490 [4] of 0.7, an OD490 [5] of 3.9 and an OD490 [6] of 3.7. For the same binder, the OD490 [7] was 1.2, the OD490 [8] was 0.4 and the OD490 [9] was 2.2. The OD490 [10] was 3.4, the OD490 [11] was 0.5 and the OD490 [12] was 3.6. For the same binder, the OD490 [13] was 0.3, the OD490 [14] was 3.8 and the OD490 [15] was 3.8. For the same binder, the OD490 [16] was 2.6, the OD490 [17] was 3.9 and the OD490 [18] was 0.2. It also gave an OD490 [19] of 3.4, an OD490 [20] of 3.9 and an OD490 [21] of 3.7. The OD490 [22] was 3.9, the OD490 [23] was 3.9 and the OD490 [24] was 0.4. It also gave an EC50 [25] of 5.07 nM.
